These results are taken from patent US20110014656A1.

Usually Kd stands for the equilibrium constant for the complex coming apart.

Experiment [1] concerns the target T1, human IL-17 receptor (IL-17RA) on transfected cells (human), Q96F46. Nature of the experiment: saturation binding, iodinated cytokine on transfected BHK cells; saturation binding, iodinated hIL-17F on hIL-17RA BHK cells. The conditions noted are these: remark: other sources report otherwise.
In experiment [2] the target is T1, human IL-17 receptor (IL-17RA) on …. The experiment can be described thus: saturation binding, iodinated cytokine on transfected BHK cells; saturation binding; fold comparison with the other Kd values of Table 1. The conditions noted are these: remark: other sources report otherwise.

T1 sequence (Q96F46 33-320 limits assumed): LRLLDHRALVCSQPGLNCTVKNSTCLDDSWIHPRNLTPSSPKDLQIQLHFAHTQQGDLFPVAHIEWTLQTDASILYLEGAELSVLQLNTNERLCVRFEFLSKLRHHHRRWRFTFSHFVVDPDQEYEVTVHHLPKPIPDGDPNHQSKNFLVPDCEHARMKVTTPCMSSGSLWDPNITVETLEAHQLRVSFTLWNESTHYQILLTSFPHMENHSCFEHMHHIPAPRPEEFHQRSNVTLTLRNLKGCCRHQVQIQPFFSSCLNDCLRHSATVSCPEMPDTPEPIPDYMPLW

B1: human IL-17F, Q96PD4 31-163 (ligand)
chain: RKIPKVGHTFFQKPESCPPVPGGSMKLDIGIINENQRVSMSRNIESRSTSPWNYTVTWDPNRYPSEVVQAQCRNLGCINAQGKEDISMNSVPIQQETLVVRRKHQGCSVSFQLEKVLVTVGCTCVTPVIHHVQ
With B1, the Kd in experiment [1] was determined as 1.5 µM. The same molecule gave a fold lower affinity relative to the other affinities measured in experiment [2] of 1000 fold.
